The source of these data is patent US20040208880.

Data set [1] has as its target GST-DLC1/PIN with deletion of Ser88.
In data set [2] the target is GST-DLC1/PIN fusion protein (wild type).
Data set [3] addresses T1, GST fusion containing the C-terminal 19 amino acids of DLC1/PIN.
T1 chain: KHFIYFYLGQVAILLFKSG

B1: GST-Pak1 fusion protein, wild-type (amino acids 1-545) (protein)
chain: MSNNGLDIQDKPPAPPMRNTSTMIGVGSKDAGTLNHGSKPLPPNPEEKKKKDRFYRSILPGDKTNKKKEKERPEISLPSDFEHTIHVGFDAVTGEFTGMPEQWARLLQTSNITKSEQKKNPQAVLDVLEFYNSKKTSNSQKYMSFTDKSAEDYNSSNALNVKAVSETPAVPPVSEDEDDDDDDATPPPVIAPRPEHTKSVYTRSVIEPLPVTPTRDVATSPISPTENNTTPPDALTRNTEKQKKKPKMSDEEILEKLRSIVSVGDPKKKYTRFEKIGQGASGTVYTAMDVATGQEVAIKQMNLQQQPKKELIINEILVMRENKNPNIVNYLDSYLVGDELWVVMEYLAGGSLTDVVTETCMDEGQIAAVCRECLQALEFLHSNQVIHRDIKSDNILLGMDGSVKLTDFGFCAQITPEQSKRSTMVGTPYWMAPEVVTRKAYGPKVDIWSLGIMAIEMIEGEPPYLNENPLRALYLIATNGTPELQNPEKLSAIFRDFLNRCLDMDVEKRGSAKELLQHQFLKIAKPLSSLTPLIAAAKEATKNNH
For B1, the “in vitro kinase assay with DLC1/PIN deletions” value is listed as “Deletion of Ser88 of DLC1/PIN completely abolished the ability of the Pak1 to phosphorylate DLC1/PIN” in data set [1] and “GST fusion containing the C-terminal 19 amino acids of DLC1/PIN was efficiently phosphorylated by Pak1” in data set [3]. The “in vitro kinase assay (phosphorylation of GST-DLC1/PIN by purified Pak1 enzyme)” value in data set [2] is on record as “The Pak1 enzyme efficiently phosphorylated DLC1/PIN”.
